{
  "source": "patent US20150168399A1",
  "about": "(INSERM INSTITUT NATIONAL DE LA SANTE ET DE LA RECHERCHE …, published 2015)",
  "key": {"[1]": {"target": "human leukocyte integrin LFA-1 (CD11a/CD18) on Jurkat cells or human NK cells (human) (UniProt P20701)", "sequence (P20701 26-1170, chain 1 of 2)": "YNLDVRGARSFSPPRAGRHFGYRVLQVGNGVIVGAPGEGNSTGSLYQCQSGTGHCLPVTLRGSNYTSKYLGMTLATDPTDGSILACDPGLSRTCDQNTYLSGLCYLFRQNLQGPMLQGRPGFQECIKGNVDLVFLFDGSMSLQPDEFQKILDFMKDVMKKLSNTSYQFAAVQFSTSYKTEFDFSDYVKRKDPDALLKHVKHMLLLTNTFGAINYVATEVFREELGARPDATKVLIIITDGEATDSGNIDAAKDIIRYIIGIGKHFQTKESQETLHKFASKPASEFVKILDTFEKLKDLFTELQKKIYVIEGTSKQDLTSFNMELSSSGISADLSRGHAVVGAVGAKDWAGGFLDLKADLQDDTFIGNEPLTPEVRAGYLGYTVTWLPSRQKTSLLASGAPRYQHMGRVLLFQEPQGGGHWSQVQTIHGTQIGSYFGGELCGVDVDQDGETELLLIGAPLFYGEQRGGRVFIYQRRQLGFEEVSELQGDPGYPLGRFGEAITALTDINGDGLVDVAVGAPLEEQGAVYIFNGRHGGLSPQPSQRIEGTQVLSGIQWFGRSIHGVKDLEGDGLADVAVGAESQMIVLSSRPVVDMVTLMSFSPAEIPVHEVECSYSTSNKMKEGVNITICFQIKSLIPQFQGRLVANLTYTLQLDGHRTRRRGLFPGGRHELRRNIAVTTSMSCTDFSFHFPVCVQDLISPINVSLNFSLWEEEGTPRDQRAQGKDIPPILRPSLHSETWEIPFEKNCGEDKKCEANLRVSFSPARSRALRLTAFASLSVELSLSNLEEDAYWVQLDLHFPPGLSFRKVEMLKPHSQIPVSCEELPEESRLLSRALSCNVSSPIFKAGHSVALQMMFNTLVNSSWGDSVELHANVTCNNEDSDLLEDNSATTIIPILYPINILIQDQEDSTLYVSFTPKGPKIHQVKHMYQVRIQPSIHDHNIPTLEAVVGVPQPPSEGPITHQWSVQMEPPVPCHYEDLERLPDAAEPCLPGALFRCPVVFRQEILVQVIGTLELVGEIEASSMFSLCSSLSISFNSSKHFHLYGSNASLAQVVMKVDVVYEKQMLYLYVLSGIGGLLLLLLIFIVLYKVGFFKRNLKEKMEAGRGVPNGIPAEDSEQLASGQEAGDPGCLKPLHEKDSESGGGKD", "sequence (P05107 23-769, chain 2 of 2, further chain)": "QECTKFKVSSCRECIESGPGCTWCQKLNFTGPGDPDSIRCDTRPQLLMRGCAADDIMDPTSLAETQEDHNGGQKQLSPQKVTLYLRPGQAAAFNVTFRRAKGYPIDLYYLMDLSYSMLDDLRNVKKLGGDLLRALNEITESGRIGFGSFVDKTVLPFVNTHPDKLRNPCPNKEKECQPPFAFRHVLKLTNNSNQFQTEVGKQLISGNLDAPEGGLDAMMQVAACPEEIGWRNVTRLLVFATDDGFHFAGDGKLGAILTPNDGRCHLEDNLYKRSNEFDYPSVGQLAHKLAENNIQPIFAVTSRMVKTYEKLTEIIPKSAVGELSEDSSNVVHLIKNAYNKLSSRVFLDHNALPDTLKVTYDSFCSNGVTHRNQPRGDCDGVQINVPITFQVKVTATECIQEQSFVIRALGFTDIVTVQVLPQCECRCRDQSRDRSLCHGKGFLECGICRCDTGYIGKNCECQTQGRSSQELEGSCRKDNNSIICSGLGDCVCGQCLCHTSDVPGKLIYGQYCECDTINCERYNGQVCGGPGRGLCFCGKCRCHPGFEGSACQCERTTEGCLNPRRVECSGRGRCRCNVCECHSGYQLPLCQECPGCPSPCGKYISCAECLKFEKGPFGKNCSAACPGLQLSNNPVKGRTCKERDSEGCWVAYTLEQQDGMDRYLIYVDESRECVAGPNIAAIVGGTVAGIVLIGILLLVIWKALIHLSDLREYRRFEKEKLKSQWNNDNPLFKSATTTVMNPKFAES", "experiment": "cell-based or functional assay"}, "[2]": {"target": "recombinant human endocan (Human active Endocan 1-165, SEQ ID NO: 1) (human) (UniProt Q9NQ30)", "experiment": "cell-based or functional assay"}, "[3]": {"target": "T1, human leukocyte integrin LFA-1 (CD11a/CD18) on Jurkat cells or human NK cells (human, UniProt P20701 26-1170; P05107 23-769)", "T1 construct": "whole, on cells; also called CD11a/CD18 integrin; endocan's receptor", "T1 sequence (P20701 26-1170, chain 1 of 2)": "as the sequence (P20701 26-1170, chain 1 of 2) above", "T1 sequence (P05107 23-769, chain 2 of 2)": "as the sequence (P05107 23-769, chain 2 of 2, further chain) above", "experiment": "co-immunoprecipitation from Jurkat lysates with HI111 and mab24", "description": "FIG. 4B: Non glycanable endocan is co-immunoprecipitated with anti-LFA-1 mabs. Bound endocan from 20 to 40×10⁶ Jurkat cells were incubated with a mab against endocan (MEC36), mabs against LFA-1 (HI111 and mab24), and anti-CD3 mab as control antibody. Bound endocan is expressed in pg per 10⁶ cells.\nImmunoprecipitation of Jurkat lysates containing endocan or non glycanated endocan S137A/E was performed as previously described in Bechard D et al (J Immunol. 2001; 167:3099-3106) using anti-CD11 a mabs HI111 (BD Biosciences), and mab24 (a generous gift of Dr Nancy Hogg from Leukocyte Adhesion Laboratory, Cancer Research UK, London Research Institute, London, UK)."}, "[4]": {"target": "T2, recombinant human endocan (Human active Endocan 1-165, SEQ ID NO: 1)", "T2 chain": "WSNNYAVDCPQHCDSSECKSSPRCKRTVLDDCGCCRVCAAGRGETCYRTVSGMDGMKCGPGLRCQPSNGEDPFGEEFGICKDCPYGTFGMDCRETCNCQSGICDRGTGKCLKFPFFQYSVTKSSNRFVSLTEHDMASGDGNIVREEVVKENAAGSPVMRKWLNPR"}},
  "data": [
    {"molecule": "monoclonal anti-human LFA-1 clone HI111 (antibody)", "values": [
      {"measurement": "decrease in transendothelial migration of NK cells through TNF-stimulated HUVEC", "setting": "[1]", "value": 82, "unit": "%"}
    ]},
    {"molecule": "purified proteinase 3 (Sigma) (from UniProt P24158 28-248) (enzyme)", "values": [
      {"measurement": "loss of the 50 kDa band of endocan", "setting": "[2]", "value": 1, "unit": "µg/mL"}
    ]},
    {"molecule": "non glycanable endocan mutant (S137A/endocan) (ligand, Produced in 293 cells; lacks the glycan chain; also called non glycanated endocan S137A/E) WSNNYAVDCPQHCDSSECKSSPRCKRTVLDDCGCCRVCAAGRGETCYRTVSGMDGMKCGPGLRCQPSNGEDPFGEEFGICKDCPYGTFGMDCRETCNCQSGICDRGTGKCLKFPFFQYSVTKSSNRFVSLTEHDMAAGDGNIVREEVVKENAAGSPVMRKWLNPR", "values": [
      {"measurement": "binding result", "setting": "[3]", "value": "binds"}
    ]},
    {"molecule": "purified elastase (Sigma) (protein) IVGGRRARPHAWPFMVSLQLRGGHFCGATLIAPNFVMSAAHCVANVNVRAVRVVLGAHNLSRREPTRQVFAVQRIFENGYDPVNLLNDIVILQLNGSATINANVQVAQLPAQGRRLGNGVQCLAMGWGLLGRNRGIASVLQELNVTVVTSLCRRSNVCTLVRGRQAGVCFGDSGSPLVCNGLIHGIASFVRGGCASGLYPDAFAPVAQFVNWIDSIIQ", "values": [
      {"measurement": "minimal concentration of elastase required for near complete degradation of endocan", "setting": "[4]", "value": 0.1, "unit": "µg/mL"}
    ]},
    {"molecule": "purified cathepsin G (Sigma) (protein) IIGGRESRPHSRPYMAYLQIQSPAGQSRCGGFLVREDFVLTAAHCWGSNINVTLGAHNIQRRENTQQHITARRAIRHPQYNQRTIQNDIMLLQLSRRVRRNRNVNPVALPRAQEGLRPGTLCTVAGWGRVSMRRGTDTLREVQLRVQRDRQCLRIFGSYDPRRQICVGDRRERKAAFKGDSGGPLLCNNVAHGIVSYGKSSGVPPEVFTRVSSFLPWIRTTMRS", "values": [
      {"measurement": "minimal concentration of cathepsin G required to cleave completely endocan in 24 h", "setting": "[4]", "value": 0.01, "unit": "µg/mL"},
      {"measurement": "reduction of the detection of MEP14-bound endocan after two hours with cathepsin G at 37° C.", "setting": "[4]", "value": "from 70% to 100%"}
    ]}
  ]
}
